Measurements from IntAct's records for PubMed 15670823.

Target: cnkr1_human CNKSR1 (UniProt Q969H4)
Sequence (Q969H4 whole entry): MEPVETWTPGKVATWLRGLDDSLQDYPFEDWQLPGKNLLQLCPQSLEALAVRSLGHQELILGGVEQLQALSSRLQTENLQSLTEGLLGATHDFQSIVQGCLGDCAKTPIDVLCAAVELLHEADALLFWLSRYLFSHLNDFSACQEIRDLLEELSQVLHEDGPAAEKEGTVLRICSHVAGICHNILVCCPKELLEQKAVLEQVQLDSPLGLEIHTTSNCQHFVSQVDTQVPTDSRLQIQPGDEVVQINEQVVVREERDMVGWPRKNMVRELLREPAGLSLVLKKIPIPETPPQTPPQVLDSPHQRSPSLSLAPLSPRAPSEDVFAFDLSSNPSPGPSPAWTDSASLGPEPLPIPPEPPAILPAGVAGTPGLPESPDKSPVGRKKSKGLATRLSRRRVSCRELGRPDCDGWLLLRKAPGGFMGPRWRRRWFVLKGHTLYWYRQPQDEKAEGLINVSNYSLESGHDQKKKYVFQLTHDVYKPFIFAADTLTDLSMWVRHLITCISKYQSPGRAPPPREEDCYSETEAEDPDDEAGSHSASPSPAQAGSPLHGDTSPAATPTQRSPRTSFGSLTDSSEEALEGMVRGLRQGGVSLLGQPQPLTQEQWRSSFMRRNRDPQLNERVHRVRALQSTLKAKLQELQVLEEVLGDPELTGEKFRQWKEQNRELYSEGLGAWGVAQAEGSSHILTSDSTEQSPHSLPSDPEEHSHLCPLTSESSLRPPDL

## Rho-related GTP-binding protein RhoC (Homo sapiens), P08134 G14V
  effect of a mutation on the interaction: increasing interaction
